Positions count from the first letter of the chain named.
Columns and labels:
Experiment in all cases: SPR, KD relative to WT C2;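 also: biacore SPR at 37 °C, anti-C2 mAbs captured via immobilised goat anti-human IgG, C2 alanine or serine surface mutants as analytes, 1:1 model fitted, double-referenced sensograms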
human C2 R519A = molecular target: T1, human C2 R519A (human, UniProt P06681 21-752)
T1 sequence: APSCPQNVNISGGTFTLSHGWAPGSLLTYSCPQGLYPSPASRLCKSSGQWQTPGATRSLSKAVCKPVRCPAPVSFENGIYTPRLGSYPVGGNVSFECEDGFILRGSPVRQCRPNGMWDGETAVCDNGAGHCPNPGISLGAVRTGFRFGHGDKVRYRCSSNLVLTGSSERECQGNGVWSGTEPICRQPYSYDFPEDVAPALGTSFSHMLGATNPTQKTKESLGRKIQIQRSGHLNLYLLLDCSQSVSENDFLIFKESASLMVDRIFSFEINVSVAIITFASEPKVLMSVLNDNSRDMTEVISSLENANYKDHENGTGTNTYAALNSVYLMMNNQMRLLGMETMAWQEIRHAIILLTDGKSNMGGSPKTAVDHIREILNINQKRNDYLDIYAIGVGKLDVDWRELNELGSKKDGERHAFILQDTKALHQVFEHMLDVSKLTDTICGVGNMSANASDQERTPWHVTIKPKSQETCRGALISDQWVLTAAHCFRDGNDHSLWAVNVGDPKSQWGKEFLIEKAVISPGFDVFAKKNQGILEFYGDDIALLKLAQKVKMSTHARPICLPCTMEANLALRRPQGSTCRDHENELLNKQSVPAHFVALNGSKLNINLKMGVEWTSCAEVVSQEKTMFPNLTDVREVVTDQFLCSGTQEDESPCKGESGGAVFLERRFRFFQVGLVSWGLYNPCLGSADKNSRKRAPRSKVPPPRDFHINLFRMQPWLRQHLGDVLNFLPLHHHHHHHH

human C2 D404A = molecular target: T2, human C2 D404A (human, UniProt P06681 21-752)
T2 sequence: T1 sequence with D384A, A499R

human C2 N380A = molecular target: T3, human C2 N380A (human, UniProt P06681 21-752)
T3 sequence: T1 sequence with N360A, A499R

human C2 F270A = molecular target: T4, human C2 F270A (human, UniProt P06681 21-752)
T4 sequence: T1 sequence with F250A, A499R

B1: RF16-226 (antibody, human IgG4 S228P, lambda)
heavy: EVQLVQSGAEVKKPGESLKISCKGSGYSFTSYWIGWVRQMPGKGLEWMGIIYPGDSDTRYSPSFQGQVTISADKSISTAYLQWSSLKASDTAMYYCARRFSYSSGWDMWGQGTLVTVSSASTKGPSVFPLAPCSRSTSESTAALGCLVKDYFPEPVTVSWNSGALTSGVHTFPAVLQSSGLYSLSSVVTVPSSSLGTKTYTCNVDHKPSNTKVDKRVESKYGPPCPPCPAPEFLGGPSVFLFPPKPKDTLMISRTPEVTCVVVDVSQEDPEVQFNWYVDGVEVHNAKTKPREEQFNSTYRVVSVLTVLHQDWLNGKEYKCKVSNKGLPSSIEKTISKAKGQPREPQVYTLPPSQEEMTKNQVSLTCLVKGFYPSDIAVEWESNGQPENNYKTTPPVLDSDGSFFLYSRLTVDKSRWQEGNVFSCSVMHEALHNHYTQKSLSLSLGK
light: SYELTQPPSVSVSPGQTARITCSGDALTSKYVAWYQQKSGLAPLLVIYEDTRRPSGIPAKFSGSSSGSVATLTISGAHGDDEADYYCYSTDASGHQRVFGGGTKLTVLSQPKAAPSVTLFPPSSEELQANKATLVCLISDFYPGAVTVAWKADGSPVKAGVETTKPSKQSNNKYAASSYLSLTPEQWKSHRSYSCQVTHEGSTVEKTVAPTECS
notes: pH-dependent anti-C2 antibody from a phage display library; also called WT
With B1 the Fold diff (human C2 R519A) was 1 fold, the Fold diff (human C2 D404A) was 1 fold and the Fold diff (human C2 N380A) was 2 fold. It also gave a Fold diff (human C2 F270A) of 10 fold.
